Reference: paper PMC4355076 (Molecular cell, 2015)
Each block holds one binder with its values, some of them ahead of it.

How the values were obtained:
[1] = biological target: T1, human UCH37 isoform 1, co-expressed with NFRKB (human, UniProt Q9Y5K5 1-329); test: cell-based or functional assay
T1 sequence (looked up): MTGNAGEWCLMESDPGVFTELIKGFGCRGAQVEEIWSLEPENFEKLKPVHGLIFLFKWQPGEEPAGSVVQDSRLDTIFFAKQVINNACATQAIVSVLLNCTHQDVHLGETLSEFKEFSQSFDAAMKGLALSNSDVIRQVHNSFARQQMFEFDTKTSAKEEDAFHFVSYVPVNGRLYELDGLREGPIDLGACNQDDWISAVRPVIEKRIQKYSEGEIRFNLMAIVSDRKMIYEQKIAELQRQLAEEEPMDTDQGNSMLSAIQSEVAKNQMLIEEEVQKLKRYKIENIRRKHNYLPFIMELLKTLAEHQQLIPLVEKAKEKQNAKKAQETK

human UCH37 isoform 2 = biological target: T2, human UCH37 isoform 2 (human, UniProt Q9Y5K5 1-329, deleting the codon for E246); test: cell-based or functional assay
T2 sequence (looked up): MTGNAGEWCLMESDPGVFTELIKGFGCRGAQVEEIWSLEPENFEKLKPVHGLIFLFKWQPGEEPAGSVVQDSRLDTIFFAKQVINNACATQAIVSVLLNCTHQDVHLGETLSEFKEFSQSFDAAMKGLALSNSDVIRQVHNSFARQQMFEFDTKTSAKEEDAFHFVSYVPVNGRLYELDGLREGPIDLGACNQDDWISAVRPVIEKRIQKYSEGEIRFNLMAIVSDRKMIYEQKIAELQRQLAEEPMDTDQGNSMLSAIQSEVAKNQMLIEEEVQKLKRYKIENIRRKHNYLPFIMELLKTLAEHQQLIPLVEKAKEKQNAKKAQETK

[2] = biological target: T3, human UCH37 (isoform 1), full-length (human, UniProt Q9Y5K5 1-329); test: cell-based or functional assay
T3 sequence (looked up): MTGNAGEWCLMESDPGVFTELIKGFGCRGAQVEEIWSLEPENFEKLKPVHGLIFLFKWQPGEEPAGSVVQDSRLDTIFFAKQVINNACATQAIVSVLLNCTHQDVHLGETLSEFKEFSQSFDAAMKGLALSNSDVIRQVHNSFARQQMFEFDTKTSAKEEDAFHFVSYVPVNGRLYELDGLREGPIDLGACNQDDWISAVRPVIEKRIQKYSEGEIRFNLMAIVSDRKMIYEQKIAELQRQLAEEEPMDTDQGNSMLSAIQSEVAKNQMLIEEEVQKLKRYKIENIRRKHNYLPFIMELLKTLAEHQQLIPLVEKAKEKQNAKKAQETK

UCH37(M148A,F149A) = biological target: T4, UCH37(M148A,F149A) (human, UniProt Q9Y5K5 1-329, M148A | F149A); test: cell-based or functional assay
T4 sequence (looked up): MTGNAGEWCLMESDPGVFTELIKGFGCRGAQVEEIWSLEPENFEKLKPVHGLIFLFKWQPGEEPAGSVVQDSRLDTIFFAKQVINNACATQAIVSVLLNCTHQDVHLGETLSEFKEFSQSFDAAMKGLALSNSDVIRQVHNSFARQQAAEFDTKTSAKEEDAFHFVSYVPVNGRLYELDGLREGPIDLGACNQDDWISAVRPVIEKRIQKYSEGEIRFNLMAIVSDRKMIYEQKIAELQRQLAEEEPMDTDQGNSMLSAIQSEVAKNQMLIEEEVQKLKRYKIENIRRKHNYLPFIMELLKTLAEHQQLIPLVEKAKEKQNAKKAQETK

human ubiquitin = human ubiquitin (human, UniProt P0CG48 1-76); test: cell-based or functional assay
AUC = biological target: the molecule itself; test: AUC

B2: NFRKB^1-156 (domain or fragment, human, UniProt Q6P4R8 1-156, looked up)
chain: MDSLDHMLTDPLELGPCGDGHGTRIMEDCLLGGTRVSLPEDLLEDPEIFFDVVSLSTWQEVLSDSQREHLQQFLPQFPEDSAEQQNELILALFSGENFRFGNPLHIAQKLFRDGHFNPEVVKYRQLCFKSQYKRYLNSQQQYFHRLLKQILASRSD
kcat of ubiquitin-AMC hydrolysis by the UCH37/NFRKB^1-156 complex [1]: 0.1 s⁻¹
kcat/Km of ubiquitin-AMC hydrolysis by the UCH37/NFRKB^1-156 complex [1]: 0.006 s^−1μM^−1

B3: NFRKB^1-156(^97GSGS^100) (domain or fragment, human, UniProt Q6P4R8 1-156, looked up)
chain: MDSLDHMLTDPLELGPCGDGHGTRIMEDCLLGGTRVSLPEDLLEDPEIFFDVVSLSTWQEVLSDSQREHLQQFLPQFPEDSAEQQNELILALFSGEGSGSGNPLHIAQKLFRDGHFNPEVVKYRQLCFKSQYKRYLNSQQQYFHRLLKQILASRSD
kcat of ubiquitin-AMC hydrolysis by the UCH37/NFRKB^1-156(^97GSGS^100) complex [1]: 5.94 s⁻¹

B4: human RPN13^285-407 (domain or fragment)
chain: GSWTQVDLASVLTPEIMAPILANADVQERLLPYLPSGESLPQTADEIQNTLTSPQFQQALGMFSAALASGQLGPLMCQFGLPAEAVEAANKGDVEAFAKAMQNNAKPEQKEGDTKDKKDEEEDMSLD
kcat of ubiquitin-AMC hydrolysis by the UCH37(isoform2)/RPN13^285-407 complex (human UCH37 isoform 2): 4.7 s⁻¹
kcat/Km of ubiquitin-AMC hydrolysis by the UCH37(isoform2)/RPN13^285-407 complex (human UCH37 isoform 2): 1.4 s^−1μM^−1
kcat of ubiquitin-AMC hydrolysis by the UCH37/RPN13^285-407 complex [2]: 5 s⁻¹
kcat/Km of ubiquitin-AMC hydrolysis by the UCH37/RPN13^285-407 complex [2]: 1.6 s^−1μM^−1
kcat of ubiquitin-AMC hydrolysis by the UCH37(M148A,F149A)/RPN13^285-407 complex (UCH37(M148A,F149A)): 4.7 s⁻¹

B6: UCH37(M269E,N291D) (enzyme, human, UniProt Q9Y5K5 1-329, looked up)
chain: MTGNAGEWCLMESDPGVFTELIKGFGCRGAQVEEIWSLEPENFEKLKPVHGLIFLFKWQPGEEPAGSVVQDSRLDTIFFAKQVINNACATQAIVSVLLNCTHQDVHLGETLSEFKEFSQSFDAAMKGLALSNSDVIRQVHNSFARQQMFEFDTKTSAKEEDAFHFVSYVPVNGRLYELDGLREGPIDLGACNQDDWISAVRPVIEKRIQKYSEGEIRFNLMAIVSDRKMIYEQKIAELQRQLAEEEPMDTDQGNSMLSAIQSEVAKNQELIEEEVQKLKRYKIENIRRKHDYLPFIMELLKTLAEHQQLIPLVEKAKEKQNAKKAQETK
Kd (AUC): 49 µM

B7: NFRKB^39-156 (domain or fragment, human, UniProt Q6P4R8 39-156, looked up)
chain: PEDLLEDPEIFFDVVSLSTWQEVLSDSQREHLQQFLPQFPEDSAEQQNELILALFSGENFRFGNPLHIAQKLFRDGHFNPEVVKYRQLCFKSQYKRYLNSQQQYFHRLLKQILASRSD
kcat of ubiquitin-AMC hydrolysis by the UCH37/NFRKB^39-156 complex [1]: 0.25 s⁻¹
kcat/Km of ubiquitin-AMC hydrolysis by the UCH37/NFRKB^39-156 complex [1]: 0.009 s^−1μM^−1

Continued, values first:

kcat of ubiquitin-AMC hydrolysis by the UCH37/NFRKB^1-117 complex [1]: 0.15 s⁻¹
kcat/Km of ubiquitin-AMC hydrolysis by the UCH37/NFRKB^1-117 complex [1]: 0.005 s^−1μM^−1
B1: NFRKB^1-117 (domain or fragment, human, UniProt Q6P4R8 1-117, looked up)
chain: MDSLDHMLTDPLELGPCGDGHGTRIMEDCLLGGTRVSLPEDLLEDPEIFFDVVSLSTWQEVLSDSQREHLQQFLPQFPEDSAEQQNELILALFSGENFRFGNPLHIAQKLFRDGHFN

kcat of ubiquitin-AMC hydrolysis by the UCH37/RPN13(Q337A,Q338A)^285-407 complex (human ubiquitin): 4.7 s⁻¹
B5: RPN13(Q337A,Q338A)^285-407 (domain or fragment, human)
chain: GSWTQVDLASVLTPEIMAPILANADVQERLLPYLPSGESLPQTADEIQNTLTSPQFAAALGMFSAALASGQLGPLMCQFGLPAEAVEAANKGDVEAFAKAMQNNAKPEQKEGDTKDKKDEEEDMSLD
